Source: patent US12679878B2, “CRF2 receptor agonists and their use in therapy” (SANOFI, priority 2020, dated 2026)
Starred links: 1 amine or outer side, 2 acyl side, 3 side chain; linkers in the order of their positions; H or OH if unused. Non-standard residues stand in square brackets, D forms with d. Groups on a side chain read outwards from the residue. No end group written: not given here. *: point of attachment. γGlu = O=C(O)[C@H](CCC(=O)[*:2])N[*:1]; Palmitoyl = CCCCCCCCCCCCCCCC(=O)*; Aib = CC(C)(N)C(=O)O

T1: anti-target CRF1R receptor (UniProt P34998 24-415, limits assumed)
T1 sequence (looked up): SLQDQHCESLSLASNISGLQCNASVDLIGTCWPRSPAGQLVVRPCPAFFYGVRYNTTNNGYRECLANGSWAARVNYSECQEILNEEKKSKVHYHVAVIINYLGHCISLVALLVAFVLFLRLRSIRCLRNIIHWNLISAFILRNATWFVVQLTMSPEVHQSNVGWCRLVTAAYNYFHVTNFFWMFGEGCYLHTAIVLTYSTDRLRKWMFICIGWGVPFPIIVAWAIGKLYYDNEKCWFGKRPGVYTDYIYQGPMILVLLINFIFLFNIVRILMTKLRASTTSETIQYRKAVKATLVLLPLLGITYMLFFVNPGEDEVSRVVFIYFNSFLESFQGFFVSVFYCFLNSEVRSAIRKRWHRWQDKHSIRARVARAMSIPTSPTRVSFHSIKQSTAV


Molecular target: T1, anti-target CRF1R receptor
Test: cell-based or functional assay

| EC50[nM] 0% HSA (cAMP, CRF1R-overexpression CHO cells) [nM] | Emax (%) (cAMP, CRF1R-overexpression CHO cells) | Binder |
| --- | --- | --- |
| > 1000 | 14.9 | FTLSLDVPTKIK([γGlu-Palmitoyl])QKLLKQEKQKKQRQKAKTAKQILEQV-NH2 (N-terminus assumed; SMILES CCCCCCCCCCCCCCCC(=O)N[C@@H](CCC(=O)NCCCC[C@H](NC(=O)[C@@H](NC(=O)[C@H](CCCCN)NC(=O)[C@@H](NC(=O)[C@@H]1CCCN1C(=O)[C@@H](NC(=O)[C@H](CC(=O)O)NC(=O)[C@H](CC(C)C)NC(=O)[C@H](CO)NC(=O)[C@H](CC(C)C)NC(=O)[C@@H](NC(=O)[C@@H](N)Cc1ccccc1)[C@@H](C)O)C(C)C)[C@@H](C)O)[C@@H](C)CC)C(=O)N[C@@H](CCC(N)=O)C(=O)N[C@@H](CCCCN)C(=O)N[C@@H](CC(C)C)C(=O)N[C@@H](CC(C)C)C(=O)N[C@@H](CCCCN)C(=O)N[C@@H](CCC(N)=O)C(=O)N[C@@H](CCC(=O)O)C(=O)N[C@@H](CCCCN)C(=O)N[C@@H](CCC(N)=O)C(=O)N[C@@H](CCCCN)C(=O)N[C@@H](CCCCN)C(=O)N[C@@H](CCC(N)=O)C(=O)N[C@@H](CCCNC(=N)N)C(=O)N[C@@H](CCC(N)=O)C(=O)N[C@@H](CCCCN)C(=O)N[C@@H](C)C(=O)N[C@@H](CCCCN)C(=O)N[C@H](C(=O)N[C@@H](C)C(=O)N[C@@H](CCCCN)C(=O)N[C@@H](CCC(N)=O)C(=O)N[C@H](C(=O)N[C@@H](CC(C)C)C(=O)N[C@@H](CCC(=O)O)C(=O)N[C@@H](CCC(N)=O)C(=O)N[C@H](C(N)=O)C(C)C)[C@@H](C)CC)[C@@H](C)O)C(=O)O) [peptide of SEQ ID NO: 9] |
| > 1000 | 14.1 | FTLSLDVPTKIK([γGlu-Palmitoyl])QKLLKQEKQRKQKQKAKTNAKILARV-NH2 (N-terminus assumed; SMILES CCCCCCCCCCCCCCCC(=O)N[C@@H](CCC(=O)NCCCC[C@H](NC(=O)[C@@H](NC(=O)[C@H](CCCCN)NC(=O)[C@@H](NC(=O)[C@@H]1CCCN1C(=O)[C@@H](NC(=O)[C@H](CC(=O)O)NC(=O)[C@H](CC(C)C)NC(=O)[C@H](CO)NC(=O)[C@H](CC(C)C)NC(=O)[C@@H](NC(=O)[C@@H](N)Cc1ccccc1)[C@@H](C)O)C(C)C)[C@@H](C)O)[C@@H](C)CC)C(=O)N[C@@H](CCC(N)=O)C(=O)N[C@@H](CCCCN)C(=O)N[C@@H](CC(C)C)C(=O)N[C@@H](CC(C)C)C(=O)N[C@@H](CCCCN)C(=O)N[C@@H](CCC(N)=O)C(=O)N[C@@H](CCC(=O)O)C(=O)N[C@@H](CCCCN)C(=O)N[C@@H](CCC(N)=O)C(=O)N[C@@H](CCCNC(=N)N)C(=O)N[C@@H](CCCCN)C(=O)N[C@@H](CCC(N)=O)C(=O)N[C@@H](CCCCN)C(=O)N[C@@H](CCC(N)=O)C(=O)N[C@@H](CCCCN)C(=O)N[C@@H](C)C(=O)N[C@@H](CCCCN)C(=O)N[C@H](C(=O)N[C@@H](CC(N)=O)C(=O)N[C@@H](C)C(=O)N[C@@H](CCCCN)C(=O)N[C@H](C(=O)N[C@@H](CC(C)C)C(=O)N[C@@H](C)C(=O)N[C@@H](CCCNC(=N)N)C(=O)N[C@H](C(N)=O)C(C)C)[C@@H](C)CC)[C@@H](C)O)C(=O)O) [peptide of SEQ ID NO: 14] |
| > 1000 | 10.2 | FTLSLDVPTKIK([γGlu-Palmitoyl])QKLLKQEKQKKQRQKAKTNKQILEQV-NH2 (N-terminus assumed; SMILES CCCCCCCCCCCCCCCC(=O)N[C@@H](CCC(=O)NCCCC[C@H](NC(=O)[C@@H](NC(=O)[C@H](CCCCN)NC(=O)[C@@H](NC(=O)[C@@H]1CCCN1C(=O)[C@@H](NC(=O)[C@H](CC(=O)O)NC(=O)[C@H](CC(C)C)NC(=O)[C@H](CO)NC(=O)[C@H](CC(C)C)NC(=O)[C@@H](NC(=O)[C@@H](N)Cc1ccccc1)[C@@H](C)O)C(C)C)[C@@H](C)O)[C@@H](C)CC)C(=O)N[C@@H](CCC(N)=O)C(=O)N[C@@H](CCCCN)C(=O)N[C@@H](CC(C)C)C(=O)N[C@@H](CC(C)C)C(=O)N[C@@H](CCCCN)C(=O)N[C@@H](CCC(N)=O)C(=O)N[C@@H](CCC(=O)O)C(=O)N[C@@H](CCCCN)C(=O)N[C@@H](CCC(N)=O)C(=O)N[C@@H](CCCCN)C(=O)N[C@@H](CCCCN)C(=O)N[C@@H](CCC(N)=O)C(=O)N[C@@H](CCCNC(=N)N)C(=O)N[C@@H](CCC(N)=O)C(=O)N[C@@H](CCCCN)C(=O)N[C@@H](C)C(=O)N[C@@H](CCCCN)C(=O)N[C@H](C(=O)N[C@@H](CC(N)=O)C(=O)N[C@@H](CCCCN)C(=O)N[C@@H](CCC(N)=O)C(=O)N[C@H](C(=O)N[C@@H](CC(C)C)C(=O)N[C@@H](CCC(=O)O)C(=O)N[C@@H](CCC(N)=O)C(=O)N[C@H](C(N)=O)C(C)C)[C@@H](C)CC)[C@@H](C)O)C(=O)O) [peptide of SEQ ID NO: 10] |
| 588 | 58.6 | IVLSLD[dV]PTKLK([γGlu-Palmitoyl])QKLLKQERQRKEREQAEKNARILARV-NH2 (not fully specified; printed as IVLSLDvPTKLK*QKLLKQERQRKEREQAEKNARILARV-NH2) [peptide of SEQ ID NO: 7] |
| 830 | 47.2 | IVLSLDVPIGLK([γGlu-Palmitoyl])QKLLKQQRQRKERQQAEKNARILARV-NH2 (N-terminus assumed; SMILES CCCCCCCCCCCCCCCC(=O)N[C@@H](CCC(=O)NCCCC[C@H](NC(=O)[C@H](CC(C)C)NC(=O)CNC(=O)[C@@H](NC(=O)[C@@H]1CCCN1C(=O)[C@@H](NC(=O)[C@H](CC(=O)O)NC(=O)[C@H](CC(C)C)NC(=O)[C@H](CO)NC(=O)[C@H](CC(C)C)NC(=O)[C@@H](NC(=O)[C@@H](N)[C@@H](C)CC)C(C)C)C(C)C)[C@@H](C)CC)C(=O)N[C@@H](CCC(N)=O)C(=O)N[C@@H](CCCCN)C(=O)N[C@@H](CC(C)C)C(=O)N[C@@H](CC(C)C)C(=O)N[C@@H](CCCCN)C(=O)N[C@@H](CCC(N)=O)C(=O)N[C@@H](CCC(N)=O)C(=O)N[C@@H](CCCNC(=N)N)C(=O)N[C@@H](CCC(N)=O)C(=O)N[C@@H](CCCNC(=N)N)C(=O)N[C@@H](CCCCN)C(=O)N[C@@H](CCC(=O)O)C(=O)N[C@@H](CCCNC(=N)N)C(=O)N[C@@H](CCC(N)=O)C(=O)N[C@@H](CCC(N)=O)C(=O)N[C@@H](C)C(=O)N[C@@H](CCC(=O)O)C(=O)N[C@@H](CCCCN)C(=O)N[C@@H](CC(N)=O)C(=O)N[C@@H](C)C(=O)N[C@@H](CCCNC(=N)N)C(=O)N[C@H](C(=O)N[C@@H](CC(C)C)C(=O)N[C@@H](C)C(=O)N[C@@H](CCCNC(=N)N)C(=O)N[C@H](C(N)=O)C(C)C)[C@@H](C)CC)C(=O)O) [peptide of SEQ ID NO: 6] |
| 571 | 57.4 | IVLSLD[dV]PTKLK([γGlu-Palmitoyl])QKLLKQERQR[Aib]EREQAEKNKRILERV-NH2 (N-terminus assumed; SMILES CCCCCCCCCCCCCCCC(=O)N[C@@H](CCC(=O)NCCCC[C@H](NC(=O)[C@H](CC(C)C)NC(=O)[C@H](CCCCN)NC(=O)[C@@H](NC(=O)[C@@H]1CCCN1C(=O)[C@H](NC(=O)[C@H](CC(=O)O)NC(=O)[C@H](CC(C)C)NC(=O)[C@H](CO)NC(=O)[C@H](CC(C)C)NC(=O)[C@@H](NC(=O)[C@@H](N)[C@@H](C)CC)C(C)C)C(C)C)[C@@H](C)O)C(=O)N[C@@H](CCC(N)=O)C(=O)N[C@@H](CCCCN)C(=O)N[C@@H](CC(C)C)C(=O)N[C@@H](CC(C)C)C(=O)N[C@@H](CCCCN)C(=O)N[C@@H](CCC(N)=O)C(=O)N[C@@H](CCC(=O)O)C(=O)N[C@@H](CCCNC(=N)N)C(=O)N[C@@H](CCC(N)=O)C(=O)N[C@@H](CCCNC(=N)N)C(=O)NC(C)(C)C(=O)N[C@@H](CCC(=O)O)C(=O)N[C@@H](CCCNC(=N)N)C(=O)N[C@@H](CCC(=O)O)C(=O)N[C@@H](CCC(N)=O)C(=O)N[C@@H](C)C(=O)N[C@@H](CCC(=O)O)C(=O)N[C@@H](CCCCN)C(=O)N[C@@H](CC(N)=O)C(=O)N[C@@H](CCCCN)C(=O)N[C@@H](CCCNC(=N)N)C(=O)N[C@H](C(=O)N[C@@H](CC(C)C)C(=O)N[C@@H](CCC(=O)O)C(=O)N[C@@H](CCCNC(=N)N)C(=O)N[C@H](C(N)=O)C(C)C)[C@@H](C)CC)C(=O)O) [peptide of SEQ ID NO: 19] |
| > 1000 | 41.8 | FTLSLDVPTKIK([γGlu-Palmitoyl])QKLLKQEKQRKQKQQAKTNAKILARV-NH2 (N-terminus assumed; SMILES CCCCCCCCCCCCCCCC(=O)N[C@@H](CCC(=O)NCCCC[C@H](NC(=O)[C@@H](NC(=O)[C@H](CCCCN)NC(=O)[C@@H](NC(=O)[C@@H]1CCCN1C(=O)[C@@H](NC(=O)[C@H](CC(=O)O)NC(=O)[C@H](CC(C)C)NC(=O)[C@H](CO)NC(=O)[C@H](CC(C)C)NC(=O)[C@@H](NC(=O)[C@@H](N)Cc1ccccc1)[C@@H](C)O)C(C)C)[C@@H](C)O)[C@@H](C)CC)C(=O)N[C@@H](CCC(N)=O)C(=O)N[C@@H](CCCCN)C(=O)N[C@@H](CC(C)C)C(=O)N[C@@H](CC(C)C)C(=O)N[C@@H](CCCCN)C(=O)N[C@@H](CCC(N)=O)C(=O)N[C@@H](CCC(=O)O)C(=O)N[C@@H](CCCCN)C(=O)N[C@@H](CCC(N)=O)C(=O)N[C@@H](CCCNC(=N)N)C(=O)N[C@@H](CCCCN)C(=O)N[C@@H](CCC(N)=O)C(=O)N[C@@H](CCCCN)C(=O)N[C@@H](CCC(N)=O)C(=O)N[C@@H](CCC(N)=O)C(=O)N[C@@H](C)C(=O)N[C@@H](CCCCN)C(=O)N[C@H](C(=O)N[C@@H](CC(N)=O)C(=O)N[C@@H](C)C(=O)N[C@@H](CCCCN)C(=O)N[C@H](C(=O)N[C@@H](CC(C)C)C(=O)N[C@@H](C)C(=O)N[C@@H](CCCNC(=N)N)C(=O)N[C@H](C(N)=O)C(C)C)[C@@H](C)CC)[C@@H](C)O)C(=O)O) [peptide of SEQ ID NO: 12] |
